Starred links: 1 amine or outer side, 2 acyl side, 3 side chain; linkers in the order of their positions; H or OH if unused. Non-standard residues stand in square brackets, D forms with d. Groups on a side chain read outwards from the residue. No end group written: not given here. *: point of attachment. C17 diacid = O=C(O)CCCCCCCCCCCCCCCC(=O)*; γGlu = O=C(O)[C@H](CCC(=O)[*:2])N[*:1]; NMeY = CN[C@@H](Cc1ccc(O)cc1)C(=O)O; AEEA = NCCOCCOCC(=O)O; Aib = CC(C)(N)C(=O)O
T1: full-length human GIPR with an N-terminal FLAG tag (human, UniProt P48546 22-466)
T1 sequence (looked up): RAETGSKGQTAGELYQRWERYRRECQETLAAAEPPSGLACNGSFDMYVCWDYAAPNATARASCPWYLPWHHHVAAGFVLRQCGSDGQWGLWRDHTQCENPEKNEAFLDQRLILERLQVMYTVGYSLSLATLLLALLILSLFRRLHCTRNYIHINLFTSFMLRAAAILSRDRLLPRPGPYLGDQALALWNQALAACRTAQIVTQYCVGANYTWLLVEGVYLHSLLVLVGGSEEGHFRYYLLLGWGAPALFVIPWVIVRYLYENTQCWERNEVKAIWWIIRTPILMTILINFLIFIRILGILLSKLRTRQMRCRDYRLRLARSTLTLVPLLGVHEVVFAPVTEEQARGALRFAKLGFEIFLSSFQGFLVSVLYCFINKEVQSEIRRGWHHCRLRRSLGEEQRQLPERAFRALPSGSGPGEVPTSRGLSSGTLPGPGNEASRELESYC


Key:
[1] = molecular target: T1, full-length human GIPR with an …; assay: cell-based or functional assay
[2] = molecular target: full-length human GLP-1R with an N-terminal FLAG tag (human, UniProt P43220 24-463); assay: cell-based or functional assay

Binder | Human GIPR cAMP EC50, HEK293T [1] [nM] | Human GLP1R cAMP EC50, HEK293T [2] [nM]
YXEGTFISDYSIXXDRXAQXDFVEWLLAQRG (N-terminus H; Aib at 2,13,17,20; Lys(G5-C18 diacid) at 14; C-terminal OH) [Compound No. 139] | 0.0015 | 8.91
YXEGTFISDYSIXXDRAAQADFVEWLLAQRG (N-terminus H; Aib at 2,13; Lys(G5-C18 diacid) at 14; C-terminal OH) [Compound No. 148] | 0.0004 | 8.71
YXEGTFISDYSIXXDSXAQXDFVNWLLAQRG (N-terminus H; Aib at 2,13,17,20; Lys(G5-C18 diacid) at 14; C-terminal OH) [Compound No. 150] | 0.0004 | 13.5
YXEGTFISDYSIAXDRXAQXDFVEWLLAQRG (N-terminus H; Aib at 2,17,20; Lys(G5-C18 diacid) at 14; C-terminal OH) [Compound No. 144] | 0.0009 | 15.1
YXEGTFISDYSIXXDRAAQXDFVEWLLAQRG (N-terminus H; Aib at 2,13,20; Lys(G5-C18 diacid) at 14; C-terminal OH) [Compound No. 145] | 0.0018 | 9.33
YXEGTFISDYSIXXDRXAQADFVEWLLAQRG (N-terminus H; Aib at 2,13,17; Lys(G5-C18 diacid) at 14; C-terminal OH) [Compound No. 146] | 0.0008 | 7.08
YXEGTFISDYSIAXDRXAQADFVEWLLAQRG (N-terminus H; Aib at 2,17; Lys(G5-C18 diacid) at 14; C-terminal OH) [Compound No. 149] | 0.0007 | 15.8
YXEGTFISDYSIXXDSXAQADFVNWLLAQRG (N-terminus H; Aib at 2,13,17; Lys(G5-C18 diacid) at 14; C-terminal OH) [Compound No. 152] | 0.0006 | 33.1
YXEGTFISDYSIXXDRXAQRDFVEWLLAQRG (N-terminus H; Aib at 2,13,17; Lys(G5-C18 diacid) at 14; C-terminal OH) [Compound No. 147] | 0.0008 | 1.66
YXEGTFISDYSIXXDSAAQXDFVNWLLAQRG (N-terminus H; Aib at 2,13,20; Lys(G5-C18 diacid) at 14; C-terminal OH) [Compound No. 151] | 0.0003 | 5.01
[NMeY][Aib]EGTFISDYSI[Aib]K([AEEA-AEEA-γGlu-γGlu-C17 diacid])DR[Aib]AQ[Aib]NFVNWLLAQRPSSGAPPPS-NH2 [Compound No. 14] | 0.0003 | 172
H-Y[Aib]EGTFISDYSIALDKIAQRK([AEEA-AEEA-γGlu-γGlu-C17 diacid])FVEWLLAQRPSSGAPPPS-OH [Compound No. 135] | 0.0007 | 8.32

— patent publication US20230143604A1, “QW DOSING OF GIP RECEPTOR AGONIST PEPTIDE COMPOUNDS AND USES THEREOF” (TAKEDA PHARMACEUTICAL COMPANY LIMITED, priority 2020, published 2023)
